Results: patent publication US7005258B1, “Cdc25 genes, encoded products and uses thereof” (The National Institutes of Health, priority 1991, dated 2006)

B1: D: murine cyclin D1 (CYL1) expressed as fusion protein with GST (protein)
chain: MEHQLLCCEVETIRRAYPDTNLLNDRVLRAMLKTEETCAPSVSYFKCVQKEIVPSMRKIVATWMLEVCEEQKCEEEVFPLAMNYLDRFLSLEPLKKSRLQLLGATCMFVASKMKETIPLTAEKLCIYTDNSIRPEELLQMELLLVNKLKWNLAAMTPHDFIEHFLSKMPEADENKQTIRKHAQTFVALCATDVKFISNPPSMVAAGSVVAAMQGLNLGSPNNFLSCYRTTHFLSRVIKCDPDCLRACQEQIEALLESSLRQAQQNVDPKATEEEGEVEEEAGLACTPTDVRDVDI
modifications: left off: a dimerising Fc or GST
B2: p13: p13 protein encoded by the suc1 gene, an essential subunit of the cdc2 protein kinase (protein)
chain: MSKSGVPRLLTASERERLEPFIDQIHYSPRYADDEYEYRHVMLPKAMLKAIPTDYFNPETGTLRILQEEEWRGLGITQSLGWEMYEVHVPEPHILLFKREKDYQMKFSQQRGG

Key:
[1] = biological target: T1, human cdc25 A (GST fusion protein) (Homo sapiens, UniProt P30304); test: cdc25 A tyrosine phosphatase assay with 32P-RCML substrate; format: biochemical
T1 construct: A plasmid containing the entire open reading frame of human cdc25 A was digested with Ncol (at amino acid 1); made in house; host or cells: E. coli (bacteria)
T1 sequence (P30304 1-524): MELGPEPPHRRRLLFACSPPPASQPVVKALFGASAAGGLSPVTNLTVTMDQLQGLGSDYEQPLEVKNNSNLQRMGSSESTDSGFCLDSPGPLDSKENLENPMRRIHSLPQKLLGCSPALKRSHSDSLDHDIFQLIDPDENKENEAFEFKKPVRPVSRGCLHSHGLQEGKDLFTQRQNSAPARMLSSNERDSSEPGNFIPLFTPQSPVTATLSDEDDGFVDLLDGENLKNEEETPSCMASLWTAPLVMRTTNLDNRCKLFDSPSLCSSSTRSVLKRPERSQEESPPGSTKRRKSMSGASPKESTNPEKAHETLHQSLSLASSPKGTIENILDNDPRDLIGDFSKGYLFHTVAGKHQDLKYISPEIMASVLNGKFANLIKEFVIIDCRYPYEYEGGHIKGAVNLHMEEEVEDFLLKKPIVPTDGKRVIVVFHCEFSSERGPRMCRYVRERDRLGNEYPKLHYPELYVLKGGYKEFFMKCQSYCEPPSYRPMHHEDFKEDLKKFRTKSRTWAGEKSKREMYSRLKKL
Description: A plasmid containing the entire open reading frame of human cdc25 A was digested with Ncol (at amino acid 1), blunt ended with T4 DNA polymerase, heat inactivated, extracted with phenolchlorophorm, ethanol precipitated and digested with EcoRI. The resultant 2.0 kb fragment was gel-purified and ligated into pGEX-2T Smal/EcoRI digested vector. Resultant plasmid upon transformation into bacteria gave rise to a 90 kd IPTG-inducible protein. […] Absorbance at 410 nm was determined using a molar absorptivity of 1.78×10^4M^−1 cm^−1 to calculate the concentration of the p-nitrophenolate ion generated in the assay. […]
Reduced carboxamidomethylated and maleylated lysozyme (RCML) was obtained from N. Tonks in a ^32P-tyrosine phosphorylated form. […] Reactions ([…]) were performed at 30° C. for 10 or 20 min, and after addition of the fatty acid free bovine serum albumin (BSA, Sigma) to 2 mg/ml, proteins were precipitated with […] of 20% trichloroacetic acid, vortexed, incubated at −70° C. for 5 min, thawed, spun in an Eppendorf centrifuge for 5–10 min at the maximal speed and […] supernatants were counted in 2 ml Aquasol (NEN) for 10 min. […]

[2] = biological target: T2, human cdc25 B (GST fusion protein) (Homo sapiens, UniProt P30305); test: cdc25 B tyrosine phosphatase assay, pH 8.8; format: biochemical; settings: p13 at 25 mM, in the presence or absence of cyclin B
T2 construct: An 2.4 kb Smal fragment from the p4×1.2 plasmid encoding amino acids 32–566 was subcloned; made in house; host or cells: E. coli (bacteria)
T2 sequence (P30305 32-566 isoform P30305-2): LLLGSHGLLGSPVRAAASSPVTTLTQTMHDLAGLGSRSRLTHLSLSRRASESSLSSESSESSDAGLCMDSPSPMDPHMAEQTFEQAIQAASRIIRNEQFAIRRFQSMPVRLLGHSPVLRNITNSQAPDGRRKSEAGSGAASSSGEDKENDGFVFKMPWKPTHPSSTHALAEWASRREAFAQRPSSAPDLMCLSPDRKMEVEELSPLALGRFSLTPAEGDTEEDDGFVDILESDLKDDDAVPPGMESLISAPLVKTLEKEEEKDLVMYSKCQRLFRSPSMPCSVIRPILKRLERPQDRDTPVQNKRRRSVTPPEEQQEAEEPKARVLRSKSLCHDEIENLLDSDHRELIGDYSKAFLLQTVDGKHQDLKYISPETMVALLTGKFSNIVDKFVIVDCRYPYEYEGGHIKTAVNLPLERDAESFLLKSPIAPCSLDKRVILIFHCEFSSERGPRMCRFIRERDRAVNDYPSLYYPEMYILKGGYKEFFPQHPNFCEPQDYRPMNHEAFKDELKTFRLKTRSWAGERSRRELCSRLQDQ

Molecule	effect on the endogenous phosphatase activity of cdc25 A ([1]; RCML substrate, 10 pmoles of cyclin and cdc25 protein)	effect on the activity of cdc25 B [2]	inhibition of the endogenous phosphatase activity of cdc25 A ([1]; p13 at 25 mM, without cyclin B1)
B1	neither stimulatory nor inhibitory effect	–	–
B2	–	no effect	2–3 fold
